The results in this text go back to the RNAGym collection of RNA variant scans (doi:10.7554/elife.80360).

B1: CPEB3 Ribozyme (parent)
chain: GGGGGCCACAGCAGAAGCGUUCACGUCGCGGCCCCUGUCAGAUUCUGGUGAAUCUGCGAAUUCUGCUGU

The data set covers variants of B1. Kind of data set: self-cleavage, relative activity (ratio to wild type); higher = more cleavage; co-transcriptional.
With GCGGGCCACAGCAGAAGCGUUCACUUCGCGGCCCCUGUCAGAUUCUGGUGAAUCUGCGAAUUCUGCUGU [G2C G25U], the self-cleavage turned out to be 0.0456. As for GCGGGCCACAGCAGAAGCGUUCACCUCGCGGCCCCUGUCAGAUUCUGGUGAAUCUGCGAAUUCUGCUGU [G2C G25C], the self-cleavage amounted to 0.0473. Then GCGGGCCACAGCAGAAGCGUUCACGUCGCAGCCCCUGUCAGAUUCUGGUGAAUCUGCGAAUUCUGCUGU [G2C G30A], with 0.0388. As for GCGGGCCACAGCAGAAGCGUUCACGUCGCUGCCCCUGUCAGAUUCUGGUGAAUCUGCGAAUUCUGCUGU [G2C G30U], the figure is 0.0301. Regarding GCGGGCCACAGCAGAAGCGUUCACGUCGCGGCCCCCGUCAGAUUCUGGUGAAUCUGCGAAUUCUGCUGU [G2C U36C], the self-cleavage came out at 0.063.

As for GCGGGCCACAGCAGAAGCGUUCACGUCGCGGCCCCUGUCAGAUUCUGGUGAAUCUGCGAAUUCUCCUGU [G2C G65C], the self-cleavage came out at 0.0537. As for GCGGGCCACAGCAGAAGCGUUCACGACGCGGCCCCUGUCAGAUUCUGGUGAAUCUGCGAAUUCUGCUGU [G2C U26A], the figure is 0.0328; as for GCGGGCCACAGCAGAAGCGUUCACGCCGCGGCCCCUGUCAGAUUCUGGUGAAUCUGCGAAUUCUGCUGU [G2C U26C], 0.0734.

Consider GCGGGCCACAGCAGAAGCGUUCACGGCGCGGCCCCUGUCAGAUUCUGGUGAAUCUGCGAAUUCUGCUGU [G2C U26G], for which the self-cleavage amounted to 0.0511.

As to GCGGGCCACAGCAGAAGCGUUCACGUCGCGGCCCCUGGCAGAUUCUGGUGAAUCUGCGAAUUCUGCUGU [G2C U38G], the self-cleavage is 0.0453. As for GCGGGCCACAGCAGAAGCGUUCACGUCGCGGCCCCUGCCAGAUUCUGGUGAAUCUGCGAAUUCUGCUGU [G2C U38C], the figure is 0.0174. As for GCGGGCCACAGCAGAAGCGUUCACGUCGCGGCCCCUGUCAGAUUCUGGUGAAUCUCCGAAUUCUGCUGU [G2C G56C], the figure is 0.0446. Consider GCGGGCCACAGCAGAAGCGUUCACGUCGCGGCCCCUGUCAGAUUCUGGUGAAUCUACGAAUUCUGCUGU [G2C G56A], for which the self-cleavage came out at 0.014.

Regarding GCGGGCCACAGCAGAAGCGUUCACGUCGCGGCCCCUGUCAGAUUCUGGUGAAUCUUCGAAUUCUGCUGU [G2C G56U], the self-cleavage worked out at 0.0319. As for GCGGGCCACAGCAGAAGCGUUCACGUCUCGGCCCCUGUCAGAUUCUGGUGAAUCUGCGAAUUCUGCUGU [G2C G28U], the figure is 0.0543; as for GCGGGCCACAGCAGAAGCGUUCACGUCCCGGCCCCUGUCAGAUUCUGGUGAAUCUGCGAAUUCUGCUGU [G2C G28C], 0.0457.

GCGGGCCACAGCAGAAGCGUUCACGUCACGGCCCCUGUCAGAUUCUGGUGAAUCUGCGAAUUCUGCUGU [G2C G28A]: the self-cleavage is 0.0369. GCGGGCCACAGCAGAAGCGUUCACGUCGCGGCCCCUGUCAGAUUCUGGUGAAUCUGCGAAUUCUGCUCU [G2C G68C]: the self-cleavage was determined as 0.114. As for GCGGGCCACAGCAGAAGCGUUCACGUCGCGGCCCCUGUCAGAUUCUGGUGAAUCUGCGAAUUCUGCUAU [G2C G68A], the figure is 0.11; as for GCGGGCCACAGCAGAAGCGUUCACGUCGCGGCCCCUGUCAGAUUCUCGUGAAUCUGCGAAUUCUGCUGU [G2C G47C], 0.0332. Then GCGGGCCACAGCAGAAGCGCUCACGUCGCGGCCCCUGUCAGAUUCUGGUGAAUCUGCGAAUUCUGCUGU [G2C U20C], with 0.0285. Then GCGGGCCACAGCAGAAGCGAUCACGUCGCGGCCCCUGUCAGAUUCUGGUGAAUCUGCGAAUUCUGCUGU [G2C U20A], with 0.0496; and GCGGGCCACAGCAGAAGCGUUCACGUCGCGGCCCCUGUCAGAUUCUGUUGAAUCUGCGAAUUCUGCUGU [G2C G48U], with 0.105; and GCGGGCCACAGCAGAAGCGUUCACGUCGCGGCCCCUGUCAGAUUCUGCUGAAUCUGCGAAUUCUGCUGU [G2C G48C], with 0.0429. Consider GCGGGCCACAGCAGAAGCGUUCACGUCGCGGCCCCUGUCACAUUCUGGUGAAUCUGCGAAUUCUGCUGU [G2C G41C], for which the self-cleavage amounted to 0.0808. Then GCGGGCCACAGCAGAAGCGUUCACGUCGCGGCCCCUGUCAUAUUCUGGUGAAUCUGCGAAUUCUGCUGU [G2C G41U], with 0.101; and GCGGGCCACAGCAGAAGCGUUCACGUCGCGUCCCCUGUCAGAUUCUGGUGAAUCUGCGAAUUCUGCUGU [G2C G31U], with 0.0216; and GCGGGCCACAGCAGAAGCGUUCACGUCGCGACCCCUGUCAGAUUCUGGUGAAUCUGCGAAUUCUGCUGU [G2C G31A], with 0.0545. Then GCGGGCCACAGCAGAAGCGUUCACGUCGCGCCCCCUGUCAGAUUCUGGUGAAUCUGCGAAUUCUGCUGU [G2C G31C], with 0.0401; and GCGGGCCACAGCAGAAGCGUUCACGUCGCGGCCCCUGUCAGAUUCUGGUGAAUCUGCUAAUUCUGCUGU [G2C G58U], with 0.0467. Then GCGGGCCACAGCAGAAGCGUUCACGUCGCGGCCCCUGUCAGAUUCUGGUGAAUCUGCCAAUUCUGCUGU [G2C G58C], with 0.0216. As to GCGGGCCACAGCAGAAGCGUACACGUCGCGGCCCCUGUCAGAUUCUGGUGAAUCUGCGAAUUCUGCUGU [G2C U21A], the self-cleavage was determined as 0.0234.

For GCGGGCCACAGCAGAAGCGUGCACGUCGCGGCCCCUGUCAGAUUCUGGUGAAUCUGCGAAUUCUGCUGU [G2C U21G], the self-cleavage was found to be 0.0813. Then GCGGGCCACAGCAGAAGCUUUCACGUCGCGGCCCCUGUCAGAUUCUGGUGAAUCUGCGAAUUCUGCUGU [G2C G19U], with 0.0175; and GCGGGCCACAGCAGAAGCCUUCACGUCGCGGCCCCUGUCAGAUUCUGGUGAAUCUGCGAAUUCUGCUGU [G2C G19C], with 0.0249. As for GCGGGCCACAGCAGAAGCGUUCACGUCGCGGCCCCUAUCAGAUUCUGGUGAAUCUGCGAAUUCUGCUGU [G2C G37A], the figure is 0.0459; as for GCGGGCCACAGCAGAAGCGUUCACGUCGCGGCCCCUUUCAGAUUCUGGUGAAUCUGCGAAUUCUGCUGU [G2C G37U], 0.0045; as for GCGGGCCACAGCAGAAGCGUUCACGUCGCGGCCCCUGUCAGAUUCUGGUUAAUCUGCGAAUUCUGCUGU [G2C G50U], 0.0262.

On to GCGGGCCACAGCAGAAGCGUUCACGUCGCGGCCCCUGUCAGAUUCUGGUCAAUCUGCGAAUUCUGCUGU [G2C G50C], for which the self-cleavage is 0.0266.
